Laboratory results from patent US20230037911A1 (SHANGHAI HENLIUS BIOTECH, published 2023).

What was measured:
[1] = molecular target: T1, recombinant human TIGIT extra cellular domain (ECD) protein (human, UniProt Q495A1 22-138); experiment: blocking ELISA, PVR as competitor
T1 construct: Purchased protein; it begins with the signal peptide; also called h-TIGIT ECD; human TIGIT ECD
T1 sequence: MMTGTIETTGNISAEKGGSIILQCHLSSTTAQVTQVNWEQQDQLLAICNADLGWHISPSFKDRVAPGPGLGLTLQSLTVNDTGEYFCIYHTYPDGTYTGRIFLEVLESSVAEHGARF

[2] = molecular target: T2, human TIGIT stably expressed on cells (Jurkat; 293T) (human, UniProt Q495A1 22-244); experiment: flow cytometry on h-TIGIT stably transfected Jurkat cells; anti-h-IgG Fc AlexaFluor488 secondary
T2 construct: the expression vector's insert is not described further; also called h-TIGIT; human TIGIT transfected Jurkat cells
T2 sequence: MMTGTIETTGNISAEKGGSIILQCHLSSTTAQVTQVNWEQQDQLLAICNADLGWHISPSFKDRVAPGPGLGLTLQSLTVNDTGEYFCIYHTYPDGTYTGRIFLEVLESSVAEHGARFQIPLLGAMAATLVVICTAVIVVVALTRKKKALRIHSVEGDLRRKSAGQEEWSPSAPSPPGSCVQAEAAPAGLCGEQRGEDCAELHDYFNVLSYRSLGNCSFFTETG

[3] = molecular target: T3, recombinant protein of his-tagged human TIGIT ECD (human, UniProt Q495A1 22-138); experiment: Octet biolayer interferometry; BsAb loaded on the sensor, his-tagged h-TIGIT ECD at different concentrations (not given), then h-PDL1 ECD
T3 construct: Used in Octet assays; also called h-TIGIT ECD (his-tagged); not shown: his tag
T3 sequence: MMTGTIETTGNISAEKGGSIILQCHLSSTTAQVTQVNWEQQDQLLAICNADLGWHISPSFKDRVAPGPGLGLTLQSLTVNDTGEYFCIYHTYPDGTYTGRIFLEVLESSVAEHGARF
Procedure: The sensors were loaded with BsAbs and then injected with different concentrations of recombinant protein of h-TIGIT ECD (his-tagged). After association of BsAbs with h-TIGIT, the sensors were injected again with different concentrations of recombinant protein of h-PDL1 ECD (his-tagged). […] Y axis represents association/disassociation and Rmax, X axis represents time in second.

| Binder | inhibition of PVR binding to h-TIGIT [1] [%] | binding result [2] | binding result [3] |
| --- | --- | --- | --- |
| 2B10 VHH (VHH, VHH in bacterial supernatant) VHH: QVKLEESGGGLVQTGDSLRLSCAASSRIFRRYAMGWFRQAPGKEREFVAAITWSGASTTYTDSVKGRFTISRDSAENTTYLQMTSLRPEDTAVYYCAADPWGSVIVGTAEYEYWGQGTLVTVSS | > 90 |  |  |
| 1C12 VHH (VHH, VHH in bacterial supernatant) VHH: QVQLVESGGGLVQTGDSLRLSCAASSRIFSRYGMGWFRQAPGKEREFVAAISWNGASTTYTDSVKGRFTISRDSAENTTYLQINSLRPEDTAVYYCAADPWGAVKLGTAEYEYWGQGTQVTVSS | > 90 |  |  |
| 2B7 VHH (VHH, VHH in bacterial supernatant) VHH: QVQLVESGGGLVQAGGSLRLACAASGRTFSSYPMGWFRQGPGKERESVAAISSDGRFTYYAASVKGRFTISKDNAKSAAFLQMNSLKPEDTAVYYCAARDSGSGYYSRAQWYDYWGQGTQVTVSS | > 90 |  |  |
| 3F10 VHH (VHH, VHH in bacterial supernatant) VHH: QVQLVESGGGLVQAGGSLRLSCASSEHTFSNFPMGWFRQAPGKERNVVAAIDSSGRLTYYADSVKGRFTISKDNAKSTVYLQMNSLKSEDTARYYCAARTGGVGYYSRSSFYNYWGQGTLVTVSS | > 90 |  |  |
| anti-TIGIT x anti-PDL1 bispecific antibody HCC (VHH 2A3 fused to the C-terminal of the anti-PDL1 heavy chain) (bispecific antibody, human IgG1, lambda, also called aTIGITx aPDL1-HCC; BsAb HCC) heavy: not shown light: QSVVTQPPPVSGAPGQRVTISCTGSSSNVGAGYDVHWYQQLPGTAPKLLIYGNSQRSSGVPDRFSGSKSGTSASLAITGLQAEDEADYYCQTYDSSGSARVVFGGGTKLTVLGQPKAAPSVTLFPPSSEELQANKATLVCLISDFYPGAVTVAWKADSSPVKAGVETTTPSKQSNNKYAASSYLSLTPEQWKSHKSYSCQVTHEGSTVEKTVAPTECS |  | binds | binds |
| anti-TIGIT x anti-PDL1 bispecific antibody HCN (VHH 2A3 fused to the N-terminal of the anti-PDL1 heavy chain) (bispecific antibody, human IgG1, lambda, also called aTIGITx aPDL1-HCN; BsAb HCN) heavy: not shown light: QSVVTQPPPVSGAPGQRVTISCTGSSSNVGAGYDVHWYQQLPGTAPKLLIYGNSQRSSGVPDRFSGSKSGTSASLAITGLQAEDEADYYCQTYDSSGSARVVFGGGTKLTVLGQPKAAPSVTLFPPSSEELQANKATLVCLISDFYPGAVTVAWKADSSPVKAGVETTTPSKQSNNKYAASSYLSLTPEQWKSHKSYSCQVTHEGSTVEKTVAPTECS |  | binds | binds |
| anti-TIGIT x anti-PDL1 bispecific antibody LCC (VHH 2A3 fused to the C-terminal of the anti-PDL1 light chain) (bispecific antibody, human IgG1, lambda, likely a printing error; also called aTIGITx aPDL1-LCC) heavy: not shown light: QSVVTQPPPVSGAPGQRVTISCTGSSSNVGAGYDVHWYQQLPGTAPKLLIYGNSQRSSGVPDRFSGSKSGTSASLAITGLQAEDEADYYCQTYDSSGSARVVFGGGTKLTVLGQPKAAPSVTLFPPSSEELQANKATLVCLISDFYPGAVTVAWKADSSPVKAGVETTTPSKQSNNKYAASSYLSLTPEQWKSHKSYSCQVTHEGSTVEKTVAPTECSGSGGSGGSGGSGQVQLVESGGGVVQPGRSLRLSCAASGGSFSSYPMGWFRQAPGKERESVAAISSDMRFTYYADSVKGRFTISRDNSKNTLYLQMNSLRAEDTAVYYCAARDSGVGYYSRAQWYDYWGQGTLVTVSS |  | binds | binds |
| 3G6 VHH (VHH, VHH in bacterial supernatant) VHH: QVQLVESGGGLVQAGGSLSLSCAASGSIFGISVMGWYRQAPGEQRDLVATLTRAGLTTYGDSVKGRFSISRDSAKNTVYLQMNNLKPEDTAVYYCHANIMESAASTFGRYWGQGTQVTVSS | > 90 |  |  |
| 15A5 VHH (VHH, VHH in bacterial supernatant) VHH: QVQLVESGGGLVQAGGSLRLSCAASERTFSSFAMGWFRQAPGKEREVVAAIDPSGRYIYYKDSVKGRFTMSRDNAKSTVYLQMNSLKPDDTARYYCAARIRGEGYYTRSSFYHYWGQGTQVTVSS | > 90 |  |  |
